Results: patent US20210139548A1 (published 2021)
*1 amine or outer side, *2 acyl side, *3 side chain or, on linkers, in order; H or OH if unused. Side-chain parts run from the residue outwards. The star is where a group is joined. C18 diacid = O=C(O)CCCCCCCCCCCCCCCCC(=O)*; γGlu = O=C(O)[C@H](CCC(=O)[*:2])N[*:1]; Isovaleryl = CC(C)CC(=O)*; AEEA = NCCOCCOCC(=O)O

T1: human neuropeptide Y2 receptor (human, UniProt P49146 1-381)
T1 construct: whole, on cells; also called hNPY2 receptor; hNPY2-R
T1 sequence (looked up): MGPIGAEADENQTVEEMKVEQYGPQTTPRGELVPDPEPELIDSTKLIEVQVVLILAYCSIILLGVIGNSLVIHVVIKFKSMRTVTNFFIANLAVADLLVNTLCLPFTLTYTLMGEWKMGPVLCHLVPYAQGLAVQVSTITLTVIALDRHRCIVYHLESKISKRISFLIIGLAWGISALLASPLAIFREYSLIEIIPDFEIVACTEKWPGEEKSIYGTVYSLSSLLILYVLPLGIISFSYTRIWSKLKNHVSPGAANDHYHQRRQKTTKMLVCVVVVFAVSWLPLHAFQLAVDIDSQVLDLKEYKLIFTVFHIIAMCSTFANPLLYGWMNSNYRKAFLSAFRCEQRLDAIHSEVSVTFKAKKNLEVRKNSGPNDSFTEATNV

B1: Compound 226 (peptide)
peptide: Isovaleryl-APEK([AEEA-AEEA-γGlu-C18 diacid])PEEAASPEETQRYYVSLRHYYNWLTRQRY-NH2
SMILES: CC(C)CC(=O)N[C@@H](C)C(=O)N1CCC[C@H]1C(=O)N[C@@H](CCC(=O)O)C(=O)N[C@@H](CCCCNC(=O)COCCOCCNC(=O)COCCOCCNC(=O)CC[C@H](NC(=O)CCCCCCCCCCCCCCCCC(=O)O)C(=O)O)C(=O)N1CCC[C@H]1C(=O)N[C@@H](CCC(=O)O)C(=O)N[C@@H](CCC(=O)O)C(=O)N[C@@H](C)C(=O)N[C@@H](C)C(=O)N[C@@H](CO)C(=O)N1CCC[C@H]1C(=O)N[C@@H](CCC(=O)O)C(=O)N[C@@H](CCC(=O)O)C(=O)N[C@H](C(=O)N[C@@H](CCC(N)=O)C(=O)N[C@@H](CCCNC(=N)N)C(=O)N[C@@H](Cc1ccc(O)cc1)C(=O)N[C@@H](Cc1ccc(O)cc1)C(=O)N[C@H](C(=O)N[C@@H](CO)C(=O)N[C@@H](CC(C)C)C(=O)N[C@@H](CCCNC(=N)N)C(=O)N[C@@H](Cc1c[nH]cn1)C(=O)N[C@@H](Cc1ccc(O)cc1)C(=O)N[C@@H](Cc1ccc(O)cc1)C(=O)N[C@@H](CC(N)=O)C(=O)N[C@@H](Cc1c[nH]c2ccccc12)C(=O)N[C@@H](CC(C)C)C(=O)N[C@H](C(=O)N[C@@H](CCCNC(=N)N)C(=O)N[C@@H](CCC(N)=O)C(=O)N[C@@H](CCCNC(=N)N)C(=O)N[C@@H](Cc1ccc(O)cc1)C(N)=O)[C@@H](C)O)C(C)C)[C@@H](C)O
B2: Compound 227 (peptide)
peptide: Isovaleryl-APEK([AEEA-AEEA-γGlu-C18 diacid])AEEDASPEELEQYYVSLRHYYNWLTRQRY-NH2
SMILES: CC(C)CC(=O)N[C@@H](C)C(=O)N1CCC[C@H]1C(=O)N[C@@H](CCC(=O)O)C(=O)N[C@@H](CCCCNC(=O)COCCOCCNC(=O)COCCOCCNC(=O)CC[C@H](NC(=O)CCCCCCCCCCCCCCCCC(=O)O)C(=O)O)C(=O)N[C@@H](C)C(=O)N[C@@H](CCC(=O)O)C(=O)N[C@@H](CCC(=O)O)C(=O)N[C@@H](CC(=O)O)C(=O)N[C@@H](C)C(=O)N[C@@H](CO)C(=O)N1CCC[C@H]1C(=O)N[C@@H](CCC(=O)O)C(=O)N[C@@H](CCC(=O)O)C(=O)N[C@@H](CC(C)C)C(=O)N[C@@H](CCC(=O)O)C(=O)N[C@@H](CCC(N)=O)C(=O)N[C@@H](Cc1ccc(O)cc1)C(=O)N[C@@H](Cc1ccc(O)cc1)C(=O)N[C@H](C(=O)N[C@@H](CO)C(=O)N[C@@H](CC(C)C)C(=O)N[C@@H](CCCNC(=N)N)C(=O)N[C@@H](Cc1c[nH]cn1)C(=O)N[C@@H](Cc1ccc(O)cc1)C(=O)N[C@@H](Cc1ccc(O)cc1)C(=O)N[C@@H](CC(N)=O)C(=O)N[C@@H](Cc1c[nH]c2ccccc12)C(=O)N[C@@H](CC(C)C)C(=O)N[C@H](C(=O)N[C@@H](CCCNC(=N)N)C(=O)N[C@@H](CCC(N)=O)C(=O)N[C@@H](CCCNC(=N)N)C(=O)N[C@@H](Cc1ccc(O)cc1)C(N)=O)[C@@H](C)O)C(C)C

Biological target: T1, human neuropeptide Y2 receptor
Experiment: radioligand competition (125I-PYY(1-36)), hNPY2R membranes
Summary of the method: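 Commercial human Y2 receptor membranes (0.5 μg protein/well) were incubated with peptide for 2 h at room temperature in 50 mM HEPES, 5 mM MgCl₂, 1 mM CaCl₂, pH 7.4, with 0.2% ovalbumin. Bound radioligand was separated on PEI-soaked GF/C filters and counted by scintillation, and IC₅₀ came from nonlinear sigmoidal regression.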

Binder	Ki [nM]
B1	1.21
B2	12.3
